Source: patent publication US20210322404A1, “FGFR REGULATION FOR THE TREATMENT OF VIRAL INFECTIONS” (ETH ZURICH, priority 2016, published 2021)
Entries after “also recorded” stand apart in the source; their conditions may differ.

Test system: HSV-1
Assay: Ex vivo HSV-1 infection of epidermal sheets from mouse tail skin
Assay type: cell-based, Herpes Simplex Virus type 1
Conditions: HSV-1 MOI=2, 48 h, FGF7 15 ng/ml, NSC23766 50 μM, AZD4547 1 μM
Method: FIG. 7D pertains to epidermal sheets from tail skin of wild-type mice that were infected ex vivo with HSV-1 (MOI=2) in the presence or absence of IFNα, FGF7, NSC23766 or AZD4547 and analyzed by immunofluorescence staining 48 h after infection with antibodies against Glyc-D (red). […] Cell nuclei were stained using DAPI (blue). Magnification bar: 800 μm. Values obtained for HSV-1 infected cells in (A-C) without additional treatment were set to 1.
HSV-1 infection of epidermal sheets from mouse tails was performed as previously described (Rahn et al., J. Invest. Dermatol 135, 3009-3016, 2015). Briefly, skin was removed from the tails of 3 month-old mice, followed by separation of the epidermis from the dermis by dispase treatment (5 mg/ml). After floating the epidermal sheets on serum-free DMEM overnight, they were incubated with HSV-1 alone (MOI=2) or in combination with FGF7 (15 ng/ml), IFNα (1000 U/ml) and/or NSC23766 (50 μM) or AZD4547 (1 μM) for 48 h and subsequently fixed in 4% PFA for 1 h at RT. The sheets were then incubated in blocking solution (PBS 2% BSA/1% fish skin gelatin/0.05% Triton Tx-100) for 2 h at RT and stained overnight at 4° C. with an antibody against Glyc-D diluted in blocking solution. […]

B1: FGF7: recombinant human FGF7, the classical ligand of FGFR2b (protein, UniProt P21781 32-194, looked up)
Fibroblast growth factor 7: CNDMTPEQMATNVNCSSPERHTRSYDYMEGGDIRVRRLFCRTQWYLRIDKRGKVKGTQEMKNNYNIMEIRTVAVGIVAIKGVESEFYLAMNKEGKLYAKKECNEDCNFKELILENHYNTYASAKWTHNGGEMFVALNQKGIPVRGKKTKKEQKTAHFLPMAIT
HSV-1 infection / viral dissemination (Glyc-D staining): stronger; also recorded: A strong increase in infected cells
